Experiment [1] has as its target T1, human ICOS ligand (human, UniProt O75144 19-258, limits assumed).
T1 construct: also called hICOSL
T1 sequence (looked up): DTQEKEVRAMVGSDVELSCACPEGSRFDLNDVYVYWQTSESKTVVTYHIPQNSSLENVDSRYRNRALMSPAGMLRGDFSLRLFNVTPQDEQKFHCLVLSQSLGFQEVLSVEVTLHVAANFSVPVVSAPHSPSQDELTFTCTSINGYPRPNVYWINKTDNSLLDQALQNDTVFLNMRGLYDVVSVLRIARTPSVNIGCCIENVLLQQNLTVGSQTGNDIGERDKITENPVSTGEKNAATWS
The experiment can be described thus: hICOSL neutralisation assay (lower left panel): blocking of hICOSL binding to its CHO-expressed receptor, absorbance at 450 nm.

Experiment [2] has as its target T2, human Tumour Necrosis Factor alpha (human, UniProt P01375 77-233).
T2 construct: Amine-coupled to the chip for BIAcore, biotinylated on streptavidin sensors for Octet, coated at 1 µg/ml for ELISA; also called hTNFα; rhTNFα
The experiment is described as follows: kinetics on hTNFα; instrument (BIAcore T200 or Octet) not stated for this column.

Experiment [3] has as its target T3, Mouse TNF-alpha (mouse, UniProt P06804 80-235).
T3 construct: also called mouse TNFα
T3 sequence (looked up): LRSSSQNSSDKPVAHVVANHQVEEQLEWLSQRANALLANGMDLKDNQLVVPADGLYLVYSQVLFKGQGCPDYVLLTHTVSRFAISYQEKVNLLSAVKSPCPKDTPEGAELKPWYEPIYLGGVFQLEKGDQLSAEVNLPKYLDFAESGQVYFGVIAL
The experiment is described as follows: cross-reactivity binding, B of B/N; - denotes no binding/neutralisation activity observed.

For experiment [4], the target named is Pig TNFα (pig, UniProt P23563 77-232). The description is as above.
Chain of Pig TNFα (P23563 77-232 limits assumed): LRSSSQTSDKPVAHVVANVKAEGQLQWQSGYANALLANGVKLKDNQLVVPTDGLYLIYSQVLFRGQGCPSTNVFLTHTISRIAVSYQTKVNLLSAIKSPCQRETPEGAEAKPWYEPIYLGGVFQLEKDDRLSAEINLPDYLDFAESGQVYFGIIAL
For experiment [5], the target named is T4, Human TNF-β (human, UniProt P01374 35-205).
T4 construct: also called human TNFB
T4 sequence (looked up): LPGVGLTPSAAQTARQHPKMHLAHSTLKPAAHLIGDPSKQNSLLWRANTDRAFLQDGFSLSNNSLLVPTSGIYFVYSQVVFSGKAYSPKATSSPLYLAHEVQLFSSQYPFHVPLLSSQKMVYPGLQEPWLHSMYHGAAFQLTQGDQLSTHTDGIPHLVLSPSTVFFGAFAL
Described as above.

The target in experiment [6] is T5, Rat TNFα (rat, UniProt P16599 80-235).
T5 sequence (looked up): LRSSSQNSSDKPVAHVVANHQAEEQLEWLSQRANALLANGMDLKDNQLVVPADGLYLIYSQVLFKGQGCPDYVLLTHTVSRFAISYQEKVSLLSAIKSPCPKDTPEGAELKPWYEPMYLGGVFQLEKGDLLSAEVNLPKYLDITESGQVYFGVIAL
The experiment is described as above.

The target in experiment [7] is T6, Rabbit TNFα (rabbit, UniProt P04924 80-235, limits assumed).
T6 sequence (looked up): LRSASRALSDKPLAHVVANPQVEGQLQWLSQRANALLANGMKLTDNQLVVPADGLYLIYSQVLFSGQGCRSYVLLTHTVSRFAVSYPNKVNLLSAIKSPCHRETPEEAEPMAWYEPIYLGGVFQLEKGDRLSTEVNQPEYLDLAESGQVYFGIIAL
The description is as above.

In experiment [8] the target is T2, human Tumour Necrosis Factor alpha. The experiment is described as follows: BLI, Octet RED96, biotinylated hTNF-α on streptavidin sensors, top concentration 1 µM. A general note: BLI is a label-free optical method that tracks binding on a fibre tip over time.
For experiment [9] the target is unchanged. The experiment can be described thus: binding ELISA on 1 µg/ml hTNF-α, absorbance at 450 nm.
The target is the same in experiment [10]. The experiment is described as follows: binding ELISA on human TNF-alpha, OD 450. (In an ELISA, binding on a coated surface is turned into a signal by an enzyme label.)
Experiment [11] addresses T7, human serum albumin (human, UniProt P02768 25-609).
T7 construct: also called HSA
The experiment is described as follows: binding ELISA on human serum albumin (HSA), OD 450.

The target of experiment [12] is T2, human Tumour Necrosis Factor alpha. The experiment can be described thus: binding ELISA on TNFα (Anti-TNF NAR Dimers Binding ELISA, post dialysis), absorbance at 450 nm.
Experiment [13] concerns the target T8, mouse ICOS ligand (mouse, UniProt Q9JHJ8 47-279, limits assumed).
T8 construct: it may be the same Fc chimera as m48; also called mICOSL
T8 sequence (looked up): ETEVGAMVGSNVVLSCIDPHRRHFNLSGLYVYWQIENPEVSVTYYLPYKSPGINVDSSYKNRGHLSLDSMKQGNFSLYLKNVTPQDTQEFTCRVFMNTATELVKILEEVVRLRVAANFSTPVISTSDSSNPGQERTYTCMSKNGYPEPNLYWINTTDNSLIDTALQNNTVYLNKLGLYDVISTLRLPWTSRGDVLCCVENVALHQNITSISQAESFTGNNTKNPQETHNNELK
The experiment is described as follows: mICOSL neutralisation assay (lower right panel): blocking of mICOSL binding to its CHO-expressed receptor, absorbance at 450 nm.

T2 sequence (P01375 77-233 limits assumed): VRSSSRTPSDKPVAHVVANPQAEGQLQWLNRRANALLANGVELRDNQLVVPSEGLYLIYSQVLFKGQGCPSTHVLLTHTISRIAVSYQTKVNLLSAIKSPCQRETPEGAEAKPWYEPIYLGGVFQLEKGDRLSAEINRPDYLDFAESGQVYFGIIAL

B1: VNAR-TNFR1 Fc bi-functional construct, Format 4: anti-hICOSL VNAR (2D4) (Fc fusion)
chain: TRVDQTPRTATKETGESLTINCVLTDTDYGLFSTSWFRKNPGTTDWERMSIGGRYVESVNKGAKSFSLRIKDLTVADSATYYCKAFTWPWEWPDRWFRPWYDGAGTVLTVN
As for B1, the “IC50 (read off the curve)” value in [1] is about 0.4 µg/mL.

B2: TNF VNAR D1-BA11-B4 (VNAR)
chain: ARVDQTPQTITKETGESLTINCVLRDSHCATSSTYWYRKKSGSTNEESISKGGRYVETVNSGSKSFSLRINDLTVEDSGTYRCASECQYGLAEYDVYGGGTVVTVNGGGGSGGGGSGGGGSGGGGSGAHSTRVDQSPSSLSASVGDRVTITCVLTDTSYPLYSTYWYRKNPGSSNKEQISISGRYSESVNKGTKSFTLTISSLQPEDSATYYCRAMSTNIWTGDGAGTKVEIKGGGGSGGGGSGGGGSGGGGSGAHSARVDQTPQTITKETGESLTINCVLRDSNCALSSMYWYRKKSGSTNEESISKGGRYVETVNSGSKSFSLRINDLTVEDSGTYRCKVYIPCIDELVYMISGGTSGPIHDVYGGGTVVTVNHHHHHHHEQKLISEEDL
notes: Tandem VNAR trimer with anti-HSA BA11 in the middle, His and Myc tags
As usually defined, the koff is the rate constant with which the complex falls apart. Lower therefore signals slow dissociation. B2 displayed an off-rate constant (koff) in experiment [2] of about 0.0006 s⁻¹.

B3: TNF VNAR D1 (VNAR)
VNAR: ARVDQTPQTITKETGESLTINCVLRDSHCATSSTYWYRKKSGSTNEESISKGGRYVETVNSGSKSFSLRINDLTVEDSGTYRCASECQYGLAEYDVYGGGTVVTVNA
notes: Nurse shark VNAR single domain; also called VNAR D1 (wt); VNAR anti-hTNFa-D1
With B3, the binding result in [3], in [4], in [5], in experiment [6] and in experiment [7] was “no binding” throughout.

B4: BB10 (VNAR)
VNAR: TRVDQSPSSLSASVGDRVTITCVLTDTSYPLYSTYWYRKNPGSSNKEQISISGRYSESVNKGTKSFTLTISSLQPEDFATYYCRAMGTNFWTGDGAGTKVEIK
In general, Kd refers to the free concentration of one partner at which half of the binding sites on the other are occupied at equilibrium, for simple one-to-one binding. A high value points to a looser complex. In turn, B4 had a Kd in [8] of over 1000 nM.

B5: SoloMER™ VNAR D1-v4 (VNAR)
VNAR: ARVDQSPSSLSASVGDRVTITCVLRDSHCATSSTYWYRKKPGSTNEESISKGGRFSGSGSSGSKSFTLTISSLQPEDFATYYCASECQYGLAEYDVFGQGTKVEIKH
notes: Humanised D1 with His tag
The term EC50 (read off the curve) denotes the concentration giving half of the maximal effect. Read a low EC50 (read off the curve) as a more potent agent. For B5, the “EC50 (read off the curve)” value in experiment [9] is about 0.1 µg/mL.

B6: TNF S17-Quad-X™ (Fc fusion)
chain: ASVNQTPRTATKETGESLTINCVLTDTHAKVFTTSWFRKNPGTTDWERMSIGGRYVESVNKGAKSFSLRIKDLTVADSATYICRAGGYLSQPRVYWDVYGAGTVLTVNGGGGSGGGGRTEPRGPTIKPCPPCKCPAPNLLGGPSVFIFPPKIKDVLMISLSPIVTCVVVDVSEDDPDVQISWFVNNVEVHTAQTQTHREDYNSTLRVVSALPIQHQDWMSGKEFKCKVNNKDLPAPIERTISKPKGSVRAPQVYVLPPPEEEMTKKQVTLTCMVTDFMPEDIYVEWTNNGKTELNYKNTEPVLDSDGSYFMYSKLRVEKKNWVERNSYSCSVVHEGLHNHHTTKSFSRTPGKGGGGSGGGGSGGGGSGGGGSGAHSASVNQTPRTATKETGESLTINCVLTDTHAKVFTTSWFRKNPGTTDWERMSIGGRYVESVNKGAKSFSLRIKDLTVADSATYICRAGGYLSQPRVYWDVYGAGTVLTVN
notes: S17, mouse IgG2a Fc and S17 in one chain; also called S17-Fc-S17; S17-Fc-S17 (Quad-X™)
Regarding B6, the binding result in [10] and in experiment [11] was “no binding (tested: 5 µg/ml)” throughout.

B7: TNF VNAR DIMER D1-D1 (VNAR)
chain: ARVDQTPQTITKETGESLTINCVLRDSHCATSSTYWYRKKSGSTNEESISKGGRYVETVNSGSKSFSLRINDLTVEDSGTYRCASECQYGLAEYDVYGGGTVVTVNGGGGSGGGGGSGAHSARVDQTPQTITKETGESLTINCVLRDSHCATSSTYWYRKKSGSTNEESISKGGRYVETVNSGSKSFSLRINDLTVEDSGTYRCASECQYGLAEYDVYGGGTVVTVNAAAHHHHHHGAAESKLISEEDL
As to B7, in [12], the “EC50 (read off the curve)” value was about 0.009 µg/mL.

B8: VNAR-TNFR1 Fc bi-functional construct, Format 2: anti-mICOSL VNAR (CC3) (Fc fusion)
chain: TRVDQTPRTATKETGESLTINCVLTDTEYGLFSTSWFRKNPGTTDWERMSIGGRYVESVNKGAKSFSLRIKDLTVADSATYYCKALGWWPPAFPHWYDGAGTVLTVN
Take B8: the “IC50 (read off the curve)” value in experiment [13] is about 0.2 µg/mL.

The values are drawn from US20250346659A1 (ELASMOGEN, published 2025).
